# Reference: patent publication US20060045884A1, “Vaccines for autoimmune and infectious disease” (Board of Regents, priority 2004, published 2006)
# Target: HLA-A2.1 (HLA-A*0201) with β2-microglobulin on the surface of T2 cells (human)
binder,measurement,value
"KLGEFYNQMM (modifications not checked) [Influenza B nucleoprotein peptide (aa 85-94), P04665 85-94]",Median Channel of Fluorescence of HLA-A2 Expression on T2 (median channel of fluorescence),194
